In publication PMC11539623 (Biochimica et biophysica acta. Gene regulatory mechanisms, 2023):

Molecular target: T1, His-tagged full length Taf14 (S. cerevisiae, UniProt P35189 1-244, labeled with His-Tag Labeling Kit RED-tris-NTA (2nd Generation))
T1 sequence (looked up): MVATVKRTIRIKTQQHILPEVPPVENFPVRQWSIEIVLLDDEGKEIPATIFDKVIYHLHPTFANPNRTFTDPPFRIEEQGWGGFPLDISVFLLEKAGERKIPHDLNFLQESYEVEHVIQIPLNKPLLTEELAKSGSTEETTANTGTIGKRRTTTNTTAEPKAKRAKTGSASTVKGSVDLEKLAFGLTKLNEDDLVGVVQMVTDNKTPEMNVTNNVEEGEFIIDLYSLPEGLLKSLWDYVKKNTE
Experiment: MST

fold weaker binding than the isolated Taf14ET: 7 fold
Binder: GHSLLLSIKLPG (peptide, UniProt P18480 782-793, looked up) [Snf5 ET domain binding motif peptide (aa 782-793)]
